First the molecules themselves.
B1: glmS ribozyme (parent)
chain: AUAAAAGCGCCAGAACUACAGAAAUGUAGUUGACGAGGAGGAGGUUUAUCGAAUUUUCGGCGGAUGCCUCCAAA

± gives the standard error. Fewer inactive variants are shown than the library holds.

Variants of B1 are the subject of this data set. Kind of data set: self-cleavage kobs at 10000 uM GlcN6P; higher = faster cleavage; RNA array. To be noted: with glucosamine-6-phosphate. The method in brief:
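Tracking of barcoded ribozyme variants used a hybridised Cy3 probe at 37 °C, after in situ transcription by E. coli RNA polymerase on sequenced MiSeq chips. The flowed solution held 40 μM to 10 mM glucosamine-6-phosphate in HEPES/KCl/Mg(OAc)2 buffer, and imaging ran over ~14 h. kobs was taken from exponential decay fits of normalised per-tile medians, and kcat and KM from weighted Michaelis–Menten fits.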
Turning to AUAAACGCGCCAGAACUACAGAAAUGUAGUUGAAGAUGAGGAGGUUUAUCGAAUUUUCGGCGGAUGCCUCCAAA, the “self-cleavage kobs at 10000 uM GlcN6P” value is < 1e-05 s⁻¹. AUAAAAGCGCCAGGACUACAGAAAUGUAGUUCACGAGGAUGGGGUUUAUCGAAUUUUCGGCGGAUGCCUCCAAA: the “self-cleavage kobs at 10000 uM GlcN6P” value was 6.25e-05 ± 2.1e-05 s⁻¹.

Turning to AUAAAAGCGCCAGAACUACAGAAAUGUAGUUGACGGGGAGGAGGUUUGUCGAAUUUUCGGCGGAUGCCUACAAA, the “self-cleavage kobs at 10000 uM GlcN6P” value is < 1e-05 s⁻¹.

For AUAAAAGCGCCAGAACUACAGAAAUGUAGUUGCCGAGGAGGAGAUUUUUCGAAUUUUCGGCGGAUGCCUCCAAA, the “self-cleavage kobs at 10000 uM GlcN6P” value was < 1e-05 s⁻¹. With AUAAAAGCGCCAGAACUACAGAAAUGUAGUUGACGAGGAGGCGGUUUAUCAAAUUUUCGGCGUAUGCCUCCAAA, the “self-cleavage kobs at 10000 uM GlcN6P” value is < 1e-05 s⁻¹. In the case of AUAAAUGCACCAGAACUACAGAAAUGUAGUUGACGAGGAGGACGUUUAUCGACUUUUCGGCGGAUGCCUGCAAA, the “self-cleavage kobs at 10000 uM GlcN6P” value was < 1e-05 s⁻¹. Take AUAAAAGCGCCAAAACUACAGAAAUGUAGUUGACGAGGAGGUGGUUUAGCGAAUUUUUGGCGGAUGCCUCCAAA: the “self-cleavage kobs at 10000 uM GlcN6P” value was < 1e-05 s⁻¹. AUAAAAGCGCCAGAAAUACAGAAAUGUAGUUGACGAGGAGGAGGUUUAGCGAAUUUUCGGCGGAUGCCUCCAAA: the “self-cleavage kobs at 10000 uM GlcN6P” value stood at 2.8e-05 ± 1.1e-05 s⁻¹.

As for AUAAACGCGCCAGAACUACAGAAAUGUAGUUGACGAGGAGGAGAUUUAUCGAAUUUUUGGCGGAUGCCUCCAAA, the “self-cleavage kobs at 10000 uM GlcN6P” value was < 1e-05 s⁻¹. As for AUAAAAGCGCCAGAACUACAGAAAUGUAGUUGACGAGGAGAAGGUUUAUCGAAUUUUCGGGGGUUGCCUCCAAA, the “self-cleavage kobs at 10000 uM GlcN6P” value is < 1e-05 s⁻¹. As for AUAAAAGCGCCAUAACUACAGAAAUGUAGUUGACGAAGAUGAGGUUUAUCGAAUUUUCGGCGGAUGCCUCCAAA, the figure is < 1e-05 s⁻¹; as for AUAAAAGCGCCCGAACUACAGAAAUGUAGUUGACGAGGAGGAGGUUUAUCGAAUUUUCGGCGGAUGCCACUAAA, 4.87e-05 ± 1.6e-05 s⁻¹; as for AUAAAAGCGCCAGAACUACAGAAAUGUAGAUGACGAGGAGGAGGCUUAUCGAAUUUUCGGCGGAUGCCUCCAAA, 0.000307 ± 8.9e-05 s⁻¹.

In the case of AUAAAAGCGGCAGAACUACAGAAAUGUAGUUGACGAGGAGGAGGUUUGUCCAAUUUUCGGCGGAUGCCUCCAAA, the “self-cleavage kobs at 10000 uM GlcN6P” value is < 1e-05 s⁻¹.

On to AUAAAAGCGCUGGGACUACAGAAAUUUAGUUGACGAGGAGGAGGUUUAUCGAAUUUUCGGCGGAUGCCUCCAAA, for which the “self-cleavage kobs at 10000 uM GlcN6P” value was determined as 0.00104 ± 0.00024 s⁻¹.

As to AUAAAGGCGCAAGAACUACAGAAAUGUAGUUGAUGAGGAGGAGGUUUAUCGAAUUUUUGGCGGAUGCGUCCAAA, the “self-cleavage kobs at 10000 uM GlcN6P” value is 0.000295 ± 0.0001 s⁻¹. As for AUAAAAGCGCCAGCACUACAGAAAUGUAGUUGACGAGGAGGAGGUUUAUCGAAUUUUCGUCGGAUGCCUACAAA, the figure is < 1e-05 s⁻¹. Regarding AUAAAACCUCCAGAACUACAGAAAUGUAGUUGACGAGGAGAAGGUUUAUUGAAUUUUCGGCGGAUGCCUCGAAA, the “self-cleavage kobs at 10000 uM GlcN6P” value was < 1e-05 s⁻¹. As for AUAAAAGCGCCAGAACUACAGAAAUGUAGUUUACGAGGAGGAGGUUGAUCGAAUUUUCGGCGGAUGCCUGCAAA, the “self-cleavage kobs at 10000 uM GlcN6P” value is 0.00012 ± 3.4e-05 s⁻¹.

Consider AUAAAAGGGCCAGAACUACAGAAAUGUAGUUGACGAGGAGGAAAUUUAUCGAAUUUUCGGCGGAUGACUGCAAA, for which the “self-cleavage kobs at 10000 uM GlcN6P” value was < 1e-05 s⁻¹. As for AUAAAAGCCCCAGAACUACAGAAAUGUAGUUGACGAGGAGGAGGUUUAUUGAAUUUUCGGCGGUUGCCUCCAAA, the figure is < 1e-05 s⁻¹; as for AUAAAAGCGCCAGAAGUACAGAAAUGUAGUUGACGAGGAGGGGGUUUAUCGAAUUUUCGGCGGAUGCCUCUAAA, 0.00126 ± 0.00039 s⁻¹. Regarding AUAAAAGCGCCAGAACUACAGAAAUGUAGUUGACGAAGAGGAGGUUUAUCGGAUUUUCGGCGGAUGUCUCCAAA, the “self-cleavage kobs at 10000 uM GlcN6P” value turned out to be 5.39e-05 ± 2.2e-05 s⁻¹. Regarding AUAAAAGCGAUAGAACUACAGAAAUGUAGUUGACGAGCAGGAGGUUUAUCGAAUCUUCGGAGGUUGCCUCCAAA, the “self-cleavage kobs at 10000 uM GlcN6P” value was < 1e-05 s⁻¹.

With AUAAAAGCGCAAGAAAUACAGAAAUGUAGUUGACGAGGAGGAGGUUUAUCGAAUUUUCGGCGGAUCCCUGCAAA, the “self-cleavage kobs at 10000 uM GlcN6P” value turned out to be 6.24e-05 ± 2.5e-05 s⁻¹. With AUAAAAGCGCCCGAAUUACAGAAAUGUAGUUGACGAGGAGGAGGUUUAUCGUAUUUUCGGCGGAUGCCUCCAAA, the “self-cleavage kobs at 10000 uM GlcN6P” value is 0.000334 ± 6.5e-05 s⁻¹.

For AUAAAACCGCCAGAACUACAGAAAUGUAGUUGACGAGGAGGGAGUUUAUCGAAUUUUCGGCGGAUGCCUCCAAA, the “self-cleavage kobs at 10000 uM GlcN6P” value was < 1e-05 s⁻¹. Take AUAAAAGCGCCAGAACUACAGAAAUGUAACUGACGAGGAGGAGGUUUAUCGAAUUUUCGACGGAUGCCUCCAAA: the “self-cleavage kobs at 10000 uM GlcN6P” value is < 1e-05 s⁻¹. On to AUAAAAGCGCCAGAACUACAGAAAUGUAGUUGCCGAGGAGGAGGGUUAUCGAAUUUUCGGCGGAUGCCUCCAAA, for which the “self-cleavage kobs at 10000 uM GlcN6P” value worked out at 4.71e-05 ± 1e-05 s⁻¹. As for AUAAAAGCGCCAGAACUCCAGAAAUGUAGUUGCCGAGGAGGAGGUUUAUCGAAUUUUCGGCGGAUGCCUCCAAA, the “self-cleavage kobs at 10000 uM GlcN6P” value is 0.000165 ± 4.4e-05 s⁻¹. To AUAAAAGCGCCAGUACUACAGAAAUGUAGUUGACGAUGAGGAGGUUUGCCGAAUUUUCGGCGGAUGCCUCUAAA belongs < 1e-05 s⁻¹; to AUAAAAGCGCCAGACCUACAGAAAUGUAGCUGACGAGGGGGAGGUUUAUCGAAUUUUCGGCGGAUGCCUCCAAA, 0.000286 ± 6.4e-05 s⁻¹; to AUAAAAGCGCCAGAACUACAGAAAUGUAGUGGACGAGGAGGAGGUUCAUCGAAUUUUCGGUGGAUGCCUCUAAA, < 1e-05 s⁻¹. As for AUAAAAGCGCCAGAACUACAGAAAUGUAGUUGACGAGGAGGAGGCUUAUCGAAGUUUCGGCGGAUGCCUACAAA, the “self-cleavage kobs at 10000 uM GlcN6P” value is 5.88e-05 ± 1.3e-05 s⁻¹.

For the origin of these results see the supplement of paper PMC7125110.
